From publication PMC6769069

Target: HybD endoprotease fused with peptide T18 of adenylate cyclase (pT18-hybD) (Escherichia coli) (UniProt P37182)
Experiment: two-hybrid; bacterial two-hybrid (adenylate cyclase fragments T25 and T18) in E. coli BTH101; T25 at the N-terminus of the large subunit variants, T18 fused with HybD; anaerobic growth in TGYEP medium pH 6.5 at 30°C for 16 h; β-galactosidase activity according to Miller

Chain of UniProt P37182 (P37182 whole entry, the tested form may be a part): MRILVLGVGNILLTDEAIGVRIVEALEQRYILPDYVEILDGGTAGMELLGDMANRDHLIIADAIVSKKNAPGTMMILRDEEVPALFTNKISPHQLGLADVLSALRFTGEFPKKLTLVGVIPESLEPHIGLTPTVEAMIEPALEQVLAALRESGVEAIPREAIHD

A β-galactosidase activity of 820 units was found for “pro-HybC^§ fused to peptide T25 of adenylate cyclase (pT25-hybC^§) (from UniProt P0ACE0 2-552)” in this work.
